The test addresses Arabidopsis thaliana Fatty Acid Thioesterase A (FatA) (Arabidopsis thaliana) (UniProt Q42561). The test can be described thus: crystal structure.

As a reminder, the stoichiometry N is the number of molecules, sites or subunits per partner or assembly.

The substance “Arabidopsis thaliana Fatty Acid Thioesterase A (FatA) (from UniProt Q42561 75-362) (enzyme)” gave a stoichiometry N of 2.

For the origin of these results see paper doi:10.1101/2024.12.23.629660.
